B1: Photosystem II subunit X (natural protein)
chain: MASTSAMSLVTPLNQTRSSPFLKPLPLKPSKALVATGGRAQRLQVKALKMDKALTGISAAALTASMVIPEIAEAAGSGISPSLKNFLLSIASGGLVLTVIIGVVVGVSNFDPVKRT
B2: Light-Harvesting Chlorophyll-Protein Complex I Subunit A4 (natural protein)
chain: MATVTTHASASIFRPCTSKPRFLTGSSGRLNRDLSFTSIGSSAKTSSFKVEAKKGEWLPGLASPDYLTGSLAGDNGFDPLGLAEDPENLKWFVQAELVNGRWAMLGVAGMLLPEVFTKIGIINVPEWYDAGKEQYFASSSTLFVIEFILFHYVEIRRWQDIKNPGSVNQDPIFKQYSLPKGEVGYPGGIFNPLNFAPTQEAKEKELANGRLAMLAFLGFVVQHNVTGKGPFENLLQHLSDPWHNTIVQTFN
B3: Protochlorophyllide oxidoreductase B (natural protein)
chain: MALQAASLVSSAFSVRKDAKLNASSSSFKDSSLFGASITDQIKSEHGSSSLRFKREQSLRNLAIRAQTAATSSPTVTKSVDGKKTLRKGNVVVTGASSGLGLATAKALAETGKWNVIMACRDFLKAERAAKSVGMPKDSYTVMHLDLASLDSVRQFVDNFRRTETPLDVLVCNAAVYFPTAKEPTYSAEGFELSVATNHLGHFLLARLLLDDLKKSDYPSKRLIIVGSITGNTNTLAGNVPPKANLGDLRGLAGGLNGLNSSAMIDGGDFDGAKAYKDSKVCNMLTMQEFHRRFHEETGVTFASLYPGCIASTGLFREHIPLFRALFPPFQKYITKGYVSETESGKRLAQVVSDPSLTKSGVYWSWNNASASFENQLSEEASDVEKARKVWEISEKLVGLA
B4: Ferredoxin-thioredoxin reductase subunit A (natural protein)
chain: MNLQAVSCSFGFLSSPLGVTPRTSFRRFVIRAKTEPSEKSVEIMRKFSEQYARRSGTYFCVDKGVTSVVIKGLAEHKDSYGAPLCPCRHYDDKAAEVGQGFWNCPCVPMRERKECHCMLFLTPDNDFAGKDQTITSDEIKETTANM

Tests used:
[1] = biological target: atToc159 G-domain bait (Arabidopsis thaliana) (UniProt O81283); assay: two-hybrid; pairwise split-ubiquitin yeast two-hybrid of isolated NubG-preys with Toc159G, Toc132G or Toc132AG bait in NMY51; growth on SD-LWHA (3-AT) and quantitative β-Gal assay, activity relative to a reference bait set to 100%
[2] = biological target: atToc132 G-domain bait (Arabidopsis thaliana) (UniProt Q9SLF3); assay: as above
Chain of atToc132 G-domain bait (Arabidopsis thaliana) (Q9SLF3 456-794): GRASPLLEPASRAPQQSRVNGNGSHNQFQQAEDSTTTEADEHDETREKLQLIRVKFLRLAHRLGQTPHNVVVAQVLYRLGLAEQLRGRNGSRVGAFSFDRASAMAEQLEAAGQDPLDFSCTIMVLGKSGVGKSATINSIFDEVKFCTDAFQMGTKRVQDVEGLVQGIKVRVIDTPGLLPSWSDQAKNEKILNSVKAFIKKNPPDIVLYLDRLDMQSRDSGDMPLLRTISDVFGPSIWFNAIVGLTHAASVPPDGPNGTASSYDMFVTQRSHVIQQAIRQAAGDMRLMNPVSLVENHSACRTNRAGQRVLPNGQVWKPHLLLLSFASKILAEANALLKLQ

Chain of atToc159 G-domain bait (Arabidopsis thaliana) (O81283 728-1092): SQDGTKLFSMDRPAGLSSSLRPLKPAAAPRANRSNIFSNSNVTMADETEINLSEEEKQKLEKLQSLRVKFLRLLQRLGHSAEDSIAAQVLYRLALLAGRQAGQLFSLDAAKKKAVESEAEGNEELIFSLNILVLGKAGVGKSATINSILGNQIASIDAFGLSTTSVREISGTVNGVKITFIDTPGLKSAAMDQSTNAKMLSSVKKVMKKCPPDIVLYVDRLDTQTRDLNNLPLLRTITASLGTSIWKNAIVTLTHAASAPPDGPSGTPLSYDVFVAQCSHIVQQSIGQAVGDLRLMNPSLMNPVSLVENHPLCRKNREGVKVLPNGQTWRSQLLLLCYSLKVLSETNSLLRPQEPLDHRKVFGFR

| Binder | % increase in strength of interaction (β-Gal) with Toc159G against Toc132G [1] [%] | further results |
| --- | --- | --- |
| B1 | 24 | – |
| B2 | – | % decrease in strength of interaction (β-Gal) with Toc159G against Toc132G [1]: -38.5% |
| B3 | 40.5 | – |
| B4 | – | % increase in strength of interaction (β-Gal) with 132G against 159G [2]: 45.2% |

From paper PMC3988174
